What was measured:
trypsin = test: Incubation with immobilized trypsin, SDS-PAGE (Example 14); assay type: in vitro ADME; settings: room temperature, 10 min to 2 hr, PBS pH 7.4, FIG. 25
Procedure: An experiment was performed to assess generation of the fragment upon incubation in the presence of trypsin. Columns were prepared to contain 100 μl immobilized Trypsin slurry, washed twice with PBS, loaded with SG-11 (SEQ ID NO:9) diluted in PBS, pH 7.4, then incubated at room temperature for varied times. To stop the reaction, each column was centrifuged to remove protein from the column, then analyzed on an SDS-PAGE gel using Coomassie Blue visualization.

[1] = Aggregation by analytical size exclusion chromatography (Example 9); assay type: physicochemical
Procedure: The stability of SG-11 (SEQ ID NO:9) was evaluated following the incubation at 37° C. for one week and at 4° C. for 3 weeks in Buffer C (100 mM sodium phosphate, pH 7.0, 0.5 M sorbitol). The stability was assessed by monitoring the aggregation formation with analytical size exclusion chromatography (SEC) equilibrated with Buffer D (100 mM sodium phosphate, pH 7.0, 10% glycerol). […] The cause of the aggregation was investigated as follows. There are two cysteine residues found in SG-11 at the positions 147 and 151 (relative to SEQ ID NO:7). […] As free sulfhydryl groups could cause aggregation by forming unpreferable intermolecular disulfide bonds, it was examined whether the presence of reducing agent, such as β-mercaptoethanol, could prevent the aggregation.

[2] = Forced degradation under stress conditions (SEC-HPLC, LC/MS/MS) (Example 8); assay type: physicochemical; settings: for Aggregates (SEC-HPLC): 2 weeks
Procedure: SG-11 (SEQ ID NO:9) was also tested under a series of stress conditions shown in Table 8 below to further characterized the stability of recombinant, purified SG-11. Stressed samples were analyzed either by SEC-HPLC for the presence of aggregates and/or degradants. LC/MS/MS was performed for determination of levels of deamidation and oxidation.
For this analysis, SG-11 (SEQ ID NO:9) was present at a concentration of 1 mg/ml in PBS (50 mM sodium phosphate, 150 mM NaCl, 10% glycerol, pH 8.0), with the exception of tests under pH 4 and pH 9. For pH 4, SG-11 (SEQ ID NO:9) was prepared at a concentration of 1 mg/ml in sodium acetate buffer (50 mM sodium acetate, 150 mM NaCl, pH 4). For pH 9, SG-11 (SEQ ID NO:9) was prepared at a concentration of 1 mg/ml in CAPSO (3-cyclohexylamino-2-hydroxy-1-propanesulfonic acid) buffer (50 mM CAPSO, 150 mM NaCl, pH 9).
Three samples treated by incubation at 40° C. for two weeks, oxidation (H2O2) or high pH 9, respectively, were analyzed by LC/MS/MS for PTMs. […] 7.84% of N53 was deamidated without any treatment.
After reduction, free cysteines were artificially carbamidomethylated by iodoacetamide to block cysteine residues from oxidation in the assays.

[3] = Stability in fecal slurry, SDS-PAGE and Coomassie blue (Example 14); settings: 37° C., 10 min, 30 min, 1 hr, 2 hr; human fecal pellets in PBS; FIG. 24

B1: SG-11 (SEQ ID NO:9): SG-11 (SEQ ID NO:3) with a FLAG-tag (DYKDDDDK) at the N-terminus (protein)
chain: MDYKDDDDKGSSHMLEGEESVVYVGKKGVIASLDVETLDQSYYDETELKSYVDAEVEDYTAEHGKNAVKVESLKVEDGVAKLKMKYKTPEDYTAFNGIELYQGKVVASLAAGYVYDGEFARVEEGKVVGAATKQDIYSEDDLKVAIIRANTDVKVDGEICYVSCQNVKLTGKDSVSIRDGYYLETGSVTASVDVTGQESVGTEQLSGTEQMEMTGEPVNADDTEQTEAAAGDGSFETDVYTFIVYK
modifications: N-terminal FLAG tag
Product on incubation with trypsin (SDS-PAGE) (trypsin): a predominant band is generated in the presence of trypsin
Aggregation formation (analytical SEC) ([1]; 4-days incubation at 37° C. in presence of 2.5% (v/v) mercaptoethanol, 50 mM sodium phosphate, 150 mM NaCl, 10% glycerol): Aggregation was greatly suppressed
Aggregation formation (analytical SEC) ([1]; 4° C. for 3 weeks in Buffer C (100 mM sodium phosphate, pH 7.0, 0.5 M sorbitol), vs freshly thawed protein): No noticeable change
Aggregation formation (analytical SEC) ([1]; 37° C. for one week in Buffer C (100 mM sodium phosphate, pH 7.0, 0.5 M sorbitol)): clearly showed aggregation peaks
Aggregates (SEC-HPLC) ([2]; 4° C.): low level of aggregates
Aggregates (SEC-HPLC) ([2]; 37° C.): major aggregation occurred
Aggregation or degradation (SEC-HPLC) ([2]; mechanical stress): do not cause either protein aggregation or degradation
Aggregation or degradation (SEC-HPLC) ([2]; repeated freeze and thaw): do not cause either protein aggregation or degradation
Stability in fecal slurry (SDS-PAGE) [3]: generation of a predominant band with an apparent molecular weight of about 25 kDa

— patent US11505583B2, “Proteins for the treatment of epithelial barrier function disorders” (Second Genome, Inc., priority 2018, dated 2022)
